{
  "source": "paper PMC6978369",
  "about": "“Peptidoglycan reshaping by a noncanonical peptidase for helical cell shape in Campylobacter jejuni” (Nature Communications, 2020)",
  "key": {"[1]": {"molecular_target": "T1, Pgp3 (Campylobacter jejuni, UniProt A0AAD2UT50)", "T1 construct": "gene A8118_01115; residues 21-273 (Glu21 to Gln273 in Methods, Asn273 in Results) without N-terminal 20 residues, of 274 aa; expressed in E. coli Rosetta2 (DE3); Zn enzyme", "T1 sequence (A0AAD2UT50 entry or part of it)": "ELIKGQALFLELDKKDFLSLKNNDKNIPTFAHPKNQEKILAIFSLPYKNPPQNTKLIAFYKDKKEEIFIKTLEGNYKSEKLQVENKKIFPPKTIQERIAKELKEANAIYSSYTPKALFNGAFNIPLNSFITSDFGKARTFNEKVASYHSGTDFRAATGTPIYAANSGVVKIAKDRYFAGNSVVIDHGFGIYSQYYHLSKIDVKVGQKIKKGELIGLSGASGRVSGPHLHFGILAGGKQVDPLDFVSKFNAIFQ", "experiment": "LC/MS turnover assay", "assay_type": "biochemical", "conditions": "D,D-endopeptidase; 50 mM Tris pH 7.5, 23 °C"}, "[2]": {"molecular_target": "Pgp3 H247A mutant, residues 21-273 (C. jejuni (strain ATCC 33560))", "experiment": "crystal structure; H247A protein (10 mg/mL, 20 mM Tris-HCl pH 8.0, 200 mM NaCl) mixed with peptide in a 1:10 molar ratio, 277 K for 1 h; crystals grown at 296 K in 1.8 M ammonium citrate tribasic pH 7.0"}},
  "data": [
    {"compound": "CO[C@@H]1O[C@H](CO)[C@@H](O)[C@H](O[C@H](C)C(=O)N[C@@H](C)C(=O)N[C@H](CCC(=O)N[C@@H](CCC[C@@H](NC(=O)[C@@H](C)NC(=O)[C@H](CCC[C@@H](N)C(=O)O)NC(=O)CC[C@@H](NC(=O)[C@H](C)NC(=O)[C@@H](C)O[C@H]2[C@H](O)[C@@H](CO)O[C@@H](OC)[C@@H]2NC(C)=O)C(=O)O)C(=O)O)C(=O)O)C(=O)O)[C@H]1NC(C)=O", "note": "[compound 2, crosslinked muramyl tetra-tri peptide]", "values": [
      {"measurement": "LC/MS turnover assay", "setting": "[1]", "result": "Pgp3 exhibited both D,D-carboxypeptidase and D,D-endopeptidase activities based on LC/MS analysis"}
    ]},
    {"compound": "crosslinked muramyl tetra-tri peptide 2, NAM-L-Ala1-γ-D-Glu2-mDAP3-D-Ala4-mDAP3-γ-D-Glu2-Ala1-NAM", "values": [
      {"measurement": "stoichiometry N", "setting": "[2]", "result": 1}
    ]},
    {"compound": "pentapeptide 1, Ac-L-Ala1-γ-D-Glu2-mDAP3-D-Ala4-D-Ala5", "values": [
      {"measurement": "stoichiometry N", "setting": "[2]", "result": 1}
    ]}
  ]
}
